Assay results taken from IntAct's records for PubMed 31515488.

B1: Germ cell-less protein-like 1 (Homo sapiens), Q96IK5 (parent)
chain: MGSLSSRVLRQPRPALAQQAQGARAGGSARRPDTGDDAAGHGFCYCAGSHKRKRSSGSFCYCHPDSETDEDEEEGDEQQRLLNTPRRKKLKSTSKYIYQTLFLNGENSDIKICALGEEWSLHKIYLCQSGYFSSMFSGSWKESSMNIIELEIPDQNIDVEALQVAFGSLYRDDVLIKPSRVVAILAAACLLQLDGLIQQCGETMKETVNVKTVCGYYTSAGTYGLDSVKKKCLEWLLNNLMTHQNVELFKELSINVMKQLIGSSNLFVMQVEMDIYTALKKWMFLQLVPSWNGSLKQLLTETDVWFSKQRKDFEGMAFLETEQGKPFVSVFRHLRLQYIISDLASARIIEQDAVVPSEWLSSVYKQQWFAMLRAEQDSEVGPQEINKEELEGNSMRCGRKLAKDGEYCWRWTGFNFGFDLLVTYTNRYIIFKRNTLNQPCSGSVSLQPRRSIAFRLRLASFDSSGKLICSRTTGYQILTLEKDQEQVVMNLDSRLLIFPLYICCNFLYISPEKKN
B2: Four and a half LIM domains protein 3 (Homo sapiens), Q13643 (parent)
chain: MSESFDCAKCNESLYGRKYIQTDSGPYCVPCYDNTFANTCAECQQLIGHDSRELFYEDRHFHEGCFRCCRCQRSLADEPFTCQDSELLCNDCYCSAFSSQCSACGETVMPGSRKLEYGGQTWHEHCFLCSGCEQPLGSRSFVPDKGAHYCVPCYENKFAPRCARCSKTLTQGGVTYRDQPWHRECLVCTGCQTPLAGQQFTSRDEDPYCVACFGELFAPKCSSCKRPIVGLGGGKYVSFEDRHWHHNCFSCARCSTSLVGQGFVPDGDQVLCQGCSQAGP
B3: Glutathione S-transferase Mu 5 (Homo sapiens), P46439 (parent)
chain: MPMTLGYWDIRGLAHAIRLLLEYTDSSYVEKKYTLGDAPDYDRSQWLNEKFKLGLDFPNLPYLIDGAHKITQSNAILRYIARKHNLCGETEEEKIRVDILENQVMDNHMELVRLCYDPDFEKLKPKYLEELPEKLKLYSEFLGKRPWFAGDKITFVDFLAYDVLDMKRIFEPKCLDAFLNLKDFISRFEGLKKISAYMKSSQFLRGLLFGKSATWNSK

Variants of: B1
Settings: with cul3_human CUL3, Q13618

| effect of a mutation on the interaction | Variant |
| --- | --- |
| with no effect | MGSLSSRVLRQPRPALAQQAQGARAGGSARRPDTGDDAAGHGFCYCAGSHKRKRSSGSFCYCHPDSETDEDEEEGDEQQRLLNTPRRKKLKSTSKYIYQTLFLNGENSDIKICALGEEWSLHKIYLCQSGYFSSMFSGSWKESSMNIIELEIPDQNIDVEALQVAFGSLYRDDVLIKPSRVVAILAAACLLQLDGLIQQCGETMKETVNVKTVCGYYTSAGTYGLDSVKKKCLEWLLNNLMTHQNVELFKELSINVMKQLIGSSNLFVMQVEMDIYTALKKWMFLQLVPSWNGSLKQLLTETDVWFSKQRKDFEGMAFLETEQGKPFVSVFRHLRLQYIVSDLASARIIEQDAVVPSEWLSSVYKQQWFAMLRAEQDSEVGPQEINKEELEGNSMRCGRKLAKDGEYCWRWTGFNFGFDLLVTYTNRYIIFKRNTLNQPCSGSVSLQPRRSIAFRLRLASFDSSGKLICSRTTGYQILTLEKDQEQVVMNLDSRLLIFPLYICCNFLYISPEKKN [I340V] |
| with no effect | MGSLSSRVLRQPRPALAQQAQGARAGGSARRPDTGDDAAGHGFCYCAGSHKRKRSSGSFCYCHPDSETDEDEEEGDEQQRLLNTPRRKKLKSTSKYIYQTLFLNGENSDIKICALGEEWSLHKIYLCQSGYFSSMFSGSWKESSMNIIELEIPDQNIDVEALQVAFGSLYRDDVLIKPSRVVAILAAACLLQLDGLIQQCGETMKETVNVKTVCGYYTSAGTYGLDSVKKKCLEWLLNNLMTHQNVELFKELSINVMKQLIGSSNLFVMQVEMDIYTALKKWMFLQLVPSWNGSLKQLLTETDVWFSKQRKDFEGMAFLETEQGKPFVSVFRHLRLQYIISDLASARIIEQDAVVPSEWLSSVYKQQWFAMLRAEQDSEVGPQEINKEELEGNSMRCGRKLAKDGEYCWRWTGFNFGFDLLVTYTNRYIIFKRNTLNQPCSGSVSLQPRRSIAFRLHLASFDSSGKLICSRTTGYQILTLEKDQEQVVMNLDSRLLIFPLYICCNFLYISPEKKN [R457H] |

Variants of: B1
Settings: with FAM167A

| effect of a mutation on the interaction | Variant |
| --- | --- |
| with no effect | MGSLSSRVLRQPRPALAQQAQGARAGGSARRPDTGDDAAGHGFCYCAGSHKRKRSSGSFCYCHPDSETDEDEEEGDEQQRLLNTPRRKKLKSTSKYIYQTLFLNGENSDIKICALGEEWSLHKIYLCQSGYFSSMFSGSWKESSMNIIELEIPDQNIDVEALQVAFGSLYRDDVLIKPSRVVAILAAACLLQLDGLIQQCGETMKETVNVKTVCGYYTSAGTYGLDSVKKKCLEWLLNNLMTHQNVELFKELSINVMKQLIGSSNLFVMQVEMDIYTALKKWMFLQLVPSWNGSLKQLLTETDVWFSKQRKDFEGMAFLETEQGKPFVSVFRHLRLQYIVSDLASARIIEQDAVVPSEWLSSVYKQQWFAMLRAEQDSEVGPQEINKEELEGNSMRCGRKLAKDGEYCWRWTGFNFGFDLLVTYTNRYIIFKRNTLNQPCSGSVSLQPRRSIAFRLRLASFDSSGKLICSRTTGYQILTLEKDQEQVVMNLDSRLLIFPLYICCNFLYISPEKKN [I340V] |
| disrupting interaction strength | MGSLSSRVLRQPRPALAQQAQGARAGGSARRPDTGDDAAGHGFCYCAGSHKRKRSSGSFCYCHPDSETDEDEEEGDEQQRLLNTPRRKKLKSTSKYIYQTLFLNGENSDIKICALGEEWSLHKIYLCQSGYFSSMFSGSWKESSMNIIELEIPDQNIDVEALQVAFGSLYRDDVLIKPSRVVAILAAACLLQLDGLIQQCGETMKETVNVKTVCGYYTSAGTYGLDSVKKKCLEWLLNNLMTHQNVELFKELSINVMKQLIGSSNLFVMQVEMDIYTALKKWMFLQLVPSWNGSLKQLLTETDVWFSKQRKDFEGMAFLETEQGKPFVSVFRHLRLQYIISDLASARIIEQDAVVPSEWLSSVYKQQWFAMLRAEQDSEVGPQEINKEELEGNSMRCGRKLAKDGEYCWRWTGFNFGFDLLVTYTNRYIIFKRNTLNQPCSGSVSLQPRRSIAFRLHLASFDSSGKLICSRTTGYQILTLEKDQEQVVMNLDSRLLIFPLYICCNFLYISPEKKN [R457H] |

Variants of: B2
Settings: with gata2_human GATA2, P23769
gata2_human GATA2, P23769, sequence (P23769 whole entry): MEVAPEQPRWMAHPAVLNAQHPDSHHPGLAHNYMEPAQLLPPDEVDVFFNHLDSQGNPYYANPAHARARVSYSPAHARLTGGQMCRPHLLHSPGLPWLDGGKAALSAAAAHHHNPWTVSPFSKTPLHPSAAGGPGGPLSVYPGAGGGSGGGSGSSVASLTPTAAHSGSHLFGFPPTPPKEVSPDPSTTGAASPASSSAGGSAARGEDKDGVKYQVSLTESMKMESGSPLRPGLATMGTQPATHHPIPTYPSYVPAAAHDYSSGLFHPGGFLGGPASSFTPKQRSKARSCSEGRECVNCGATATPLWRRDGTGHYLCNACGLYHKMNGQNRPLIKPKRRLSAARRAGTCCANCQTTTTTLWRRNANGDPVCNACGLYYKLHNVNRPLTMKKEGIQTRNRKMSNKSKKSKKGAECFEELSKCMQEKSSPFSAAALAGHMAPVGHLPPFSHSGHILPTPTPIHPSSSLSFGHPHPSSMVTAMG

| effect of a mutation on the interaction | Variant |
| --- | --- |
| with no effect | MSESFDCAKCNESLYGRKYIQTDSGPYCVPCYDNTFANTCAECQQLIGHDSRELFYEDRHFHEGCFRCCRCQRSLADEPFTCQDSELLCNDCYCSAFSSQCSACGETVMPGSRKLEYGGQTWHEHCFLCSGCEQPLGSRSFVPDKGAHYCVPCYENKFAPRCARCSKTLTQGGVTYRDQPWHRECLVCTGCQTPLAGQQFTSRDEDPYCVACFGELFAPKCSSCKHPIVGLGGGKYVSFEDRHWHHNCFSCARCSTSLVGQGFVPDGDQVLCQGCSQAGP [R226H] |

Variants of: B2
Settings: with FAM90A1, Q86YD7
FAM90A1, Q86YD7, sequence (Q86YD7 whole entry): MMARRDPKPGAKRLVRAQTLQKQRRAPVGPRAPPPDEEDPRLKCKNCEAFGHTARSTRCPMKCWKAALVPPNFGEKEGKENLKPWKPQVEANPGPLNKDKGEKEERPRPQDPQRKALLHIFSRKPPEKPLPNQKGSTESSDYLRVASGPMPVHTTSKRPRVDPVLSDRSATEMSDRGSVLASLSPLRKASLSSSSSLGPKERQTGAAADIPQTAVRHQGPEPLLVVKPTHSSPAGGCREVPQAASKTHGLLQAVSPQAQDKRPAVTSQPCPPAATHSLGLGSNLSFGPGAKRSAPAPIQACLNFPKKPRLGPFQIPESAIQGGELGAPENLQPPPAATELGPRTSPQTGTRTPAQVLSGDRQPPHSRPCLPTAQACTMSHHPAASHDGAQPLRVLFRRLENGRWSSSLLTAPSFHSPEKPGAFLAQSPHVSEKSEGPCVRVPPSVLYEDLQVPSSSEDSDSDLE

| effect of a mutation on the interaction | Variant |
| --- | --- |
| with no effect | MSESFDCAKCNESLYGRKYIQTDSGPYCVPCYDNTFANTCAECQQLIGHDSRELFYEDRHFHEGCFRCCRCQRSLADEPFTCQDSELLCNDCYCSAFSSQCSTCGETVMPGSRKLEYGGQTWHEHCFLCSGCEQPLGSRSFVPDKGAHYCVPCYENKFAPRCARCSKTLTQGGVTYRDQPWHRECLVCTGCQTPLAGQQFTSRDEDPYCVACFGELFAPKCSSCKRPIVGLGGGKYVSFEDRHWHHNCFSCARCSTSLVGQGFVPDGDQVLCQGCSQAGP [A103T] |

Variants of: B3
Settings: with amol2_human AMOTL2, Q9Y2J4
amol2_human AMOTL2, Q9Y2J4, sequence (Q9Y2J4 whole entry): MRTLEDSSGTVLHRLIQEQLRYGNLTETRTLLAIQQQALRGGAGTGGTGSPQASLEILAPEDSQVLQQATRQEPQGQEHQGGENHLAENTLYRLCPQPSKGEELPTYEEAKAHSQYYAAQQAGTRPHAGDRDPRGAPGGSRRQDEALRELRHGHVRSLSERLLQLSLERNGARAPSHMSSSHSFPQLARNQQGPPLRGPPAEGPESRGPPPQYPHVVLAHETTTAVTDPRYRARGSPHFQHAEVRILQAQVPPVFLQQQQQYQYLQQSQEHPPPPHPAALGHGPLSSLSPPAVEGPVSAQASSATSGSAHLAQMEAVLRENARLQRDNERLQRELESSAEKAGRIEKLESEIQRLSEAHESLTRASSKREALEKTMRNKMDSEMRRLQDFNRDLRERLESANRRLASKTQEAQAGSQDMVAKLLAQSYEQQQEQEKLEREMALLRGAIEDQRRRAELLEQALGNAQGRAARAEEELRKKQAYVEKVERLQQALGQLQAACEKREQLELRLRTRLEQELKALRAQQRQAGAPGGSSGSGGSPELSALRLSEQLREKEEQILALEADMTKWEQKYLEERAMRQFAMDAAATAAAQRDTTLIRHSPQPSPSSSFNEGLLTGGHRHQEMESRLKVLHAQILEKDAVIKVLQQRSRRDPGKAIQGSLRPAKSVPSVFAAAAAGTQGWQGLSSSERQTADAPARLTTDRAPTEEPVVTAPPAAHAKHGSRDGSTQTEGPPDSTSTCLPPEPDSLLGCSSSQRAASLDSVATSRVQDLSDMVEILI

| effect of a mutation on the interaction | Variant |
| --- | --- |
| with no effect | MPMTLGYWDIRGLAHAIRLLLEYTDSSYVEKKYTLGDAPDYDRSQWLNEKFKLGLDFPNLPYLIDGAHKITQSNAILRYIARKHNLCGETEEEKIRVDILENQVMDNHMELVRLCYDPDFEKLKPKYLEELPEKLKLYSEFLGKRPWFAGDKITFVDFLAYDVLDMKRIFEPKCLDAFPNLKDFISRFEGLKKISAYMKSSQFLRGLLFGKSATWNSK [L179P] |
